Experimental findings from the Human Domainome abundance scans (Beltran et al. 2025) are described below.

± gives the uncertainty stated by the source.

B1: Storkhead-box protein 2, residues 64 to 141; numbered along this chain, Q9P2F5 (parent)
chain: SPISQSQFIPLGEILCLAISAMNSARKPVTQEALMEHLTTCFPGVPTPSQEILRHTLNTLVRERKIYPTPDGYFIVTP

This data set covers variants of B1. The data set can be described thus: abundance fitness (aPCA) (normalised: wild type 0, dead -1); higher = more abundant; growth selection in yeast, the domain comes from the species named. Particulars: Homo sapiens.
Turning to S6Q, the abundance fitness was -0.069 ± 0.087.

For S6Y, the abundance fitness is -0.206 ± 0.078. The same measure for S6W: -0.246 ± 0.056; for S6I: -0.148 ± 0.061. F74M: the abundance fitness is 0.073 ± 0.078.

Turning to F74L, the abundance fitness is -0.046 ± 0.044. Regarding F74I, the abundance fitness was -0.001 ± 0.067. In the case of F74W, the abundance fitness is -0.002 ± 0.067. In the case of F74A, the abundance fitness came out at 0.095 ± 0.056. Regarding R62A, the abundance fitness worked out at 0.049 ± 0.049. The same measure for R62E: 0.017 ± 0.075. Consider R62P, for which the abundance fitness was -0.944 ± 0.091. The same measure for V29L: -0.408 ± 0.041. V29S: the abundance fitness is -0.065 ± 0.056. As for V29T, the abundance fitness is -0.162 ± 0.11. The same measure for V29F: -0.213 ± 0.057; for V29Y: -0.592 ± 0.12; for V29P: -0.17 ± 0.061. For I3T, the abundance fitness is -0.024 ± 0.072. The same measure for I3H: -0.017 ± 0.062; for I3E: 0.041 ± 0.06. N58Y: the abundance fitness is -0.203 ± 0.11.

For the variant N58I, the abundance fitness was -0.041 ± 0.076. With N58K, the abundance fitness is -0.071 ± 0.059.

Turning to N58L, the abundance fitness is -0.025 ± 0.041. The figure for N58C is -0.052 ± 0.072; for V45Y it is 0.051 ± 0.12; for V45Q it is -0.007 ± 0.076. The figure for V45E is -0.155 ± 0.067; for V45D it is -0.207 ± 0.091.

With P10T, the abundance fitness was -0.024 ± 0.11.

Take P10N: the abundance fitness was 0.108 ± 0.12. The same measure for P10R: 0.089 ± 0.04; for H55S: -0.005 ± 0.04. The figure for H55L is -0.088 ± 0.039; for H55E it is 0.028 ± 0.052; for H55I it is -0.103 ± 0.12. Consider H55V, for which the abundance fitness is -0.035 ± 0.039.

With H55A, the abundance fitness came out at 0.007 ± 0.045. The figure for I9Y is -0.082 ± 0.1; for I9E it is 0.074 ± 0.1.

On to I9A, for which the abundance fitness amounted to 0.005 ± 0.066. The figure for I9G is 0.025 ± 0.036; for I9K it is 0.044 ± 0.11. Consider I9M, for which the abundance fitness is 0.062 ± 0.084. I9V: the abundance fitness is 0.011 ± 0.036. The figure for P43W is -0.23 ± 0.055. For P43K, the abundance fitness turned out to be 0.048 ± 0.057. The figure for P43M is -0.21 ± 0.071. As for P43T, the abundance fitness is -0.028 ± 0.067. The same measure for I14S: 0.01 ± 0.057; for I14N: -0.384 ± 0.16. For the variant I14G, the abundance fitness is -0.097 ± 0.059. Turning to I14C, the abundance fitness was -0.109 ± 0.17. The figure for P68T is 0.04 ± 0.093; for P68K it is -0.082 ± 0.23.

P68L: the abundance fitness stood at 0.017 ± 0.035. In the case of I19F, the abundance fitness is -0.317 ± 0.15. For the variant I19S, the abundance fitness was -0.823 ± 0.062. In the case of I19V, the abundance fitness was -0.154 ± 0.051. Turning to I19Q, the abundance fitness was -1.15 ± 0.21. The figure for I19A is -0.341 ± 0.055; for I19C it is -0.21 ± 0.067.

On to H37K, for which the abundance fitness was -0.164 ± 0.1. In the case of H37G, the abundance fitness was -0.236 ± 0.042.

Take H37V: the abundance fitness was -0.48 ± 0.055.

For the variant H37Y, the abundance fitness was -0.159 ± 0.083.

Regarding H37L, the abundance fitness is -0.548 ± 0.049.

With C41I, the abundance fitness was -0.129 ± 0.15. The same measure for C41F: 0.01 ± 0.082.

As to C41Y, the abundance fitness was -0.062 ± 0.09. Turning to C41G, the abundance fitness was 0.019 ± 0.042.

For the variant L53E, the abundance fitness is -0.929 ± 0.15.

On to L53A, for which the abundance fitness was -0.124 ± 0.058. M22G: the abundance fitness is -0.257 ± 0.036. The figure for M22D is -0.515 ± 0.29. The same measure for M22Y: -0.243 ± 0.13; for M22T: -0.616 ± 0.067.

For the variant M22V, the abundance fitness is -0.354 ± 0.044.

As for A33C, the abundance fitness is -0.188 ± 0.075. As to A33R, the abundance fitness is -0.045 ± 0.037. On to L34P, for which the abundance fitness is -1.09 ± 0.14. The figure for L34F is -0.576 ± 0.12; for L34C it is -0.048 ± 0.074. The figure for L34K is -1 ± 0.21. Consider L34A, for which the abundance fitness is -0.45 ± 0.044. The same measure for L34T: -0.576 ± 0.084.

Turning to R54W, the abundance fitness is -0.285 ± 0.091. The same measure for R54N: 0.012 ± 0.25; for R54G: 0.057 ± 0.1.

R54A: the abundance fitness is 0.015 ± 0.1. On to S49V, for which the abundance fitness was -0.575 ± 0.043.

For the variant S49L, the abundance fitness was -0.684 ± 0.055. The figure for S49Q is -0.265 ± 0.082; for S49I it is -0.835 ± 0.12.

For T59D, the abundance fitness is -0.016 ± 0.063. The figure for T59C is 0.122 ± 0.076. The figure for T59G is 0.015 ± 0.033; for T59E it is 0.049 ± 0.061; for P78V it is -0.182 ± 0.09. As to P78K, the abundance fitness was -0.086 ± 0.21. The figure for P78C is 0.072 ± 0.2. For L60I, the abundance fitness was -0.384 ± 0.1. As to L60Q, the abundance fitness is -0.342 ± 0.049. The figure for L60P is -1.07 ± 0.099; for L60W it is -0.525 ± 0.067. As for L60H, the abundance fitness was -0.719 ± 0.11. For L60Y, the abundance fitness was -0.666 ± 0.12.

As for L60A, the abundance fitness was -0.213 ± 0.044.

With P28W, the abundance fitness is -0.214 ± 0.064. As for P28T, the abundance fitness was found to be 0.009 ± 0.066. The figure for P28N is -0.024 ± 0.13; for P28V it is -0.072 ± 0.048; for P28K it is -0.076 ± 0.1. The same measure for P28H: -0.015 ± 0.11; for P28F: -0.187 ± 0.17; for V76C: 0.03 ± 0.069. As for V76A, the abundance fitness stood at 0.001 ± 0.041. Turning to A25D, the abundance fitness came to 0.018 ± 0.099. The same measure for A25C: -0.05 ± 0.074; for A25M: -0.048 ± 0.11; for L11V: -0.163 ± 0.064. Take L11H: the abundance fitness was -0.051 ± 0.22. The figure for T69M is -0.148 ± 0.075; for T69K it is -0.249 ± 0.1; for T69Q it is -0.036 ± 0.065. The figure for T69N is -0.042 ± 0.13.

For the variant D71W, the abundance fitness is -0.189 ± 0.047. Regarding D71T, the abundance fitness is 0.004 ± 0.079.

In the case of D71G, the abundance fitness amounted to 0.018 ± 0.037.

For D71N, the abundance fitness is -0.012 ± 0.16. The figure for D71C is -0.154 ± 0.061; for D71P it is -0.223 ± 0.054; for D71H it is 0.031 ± 0.081. For the variant D71V, the abundance fitness was -0.022 ± 0.063.

Regarding F8D, the abundance fitness is -0.027 ± 0.12. The same measure for F8H: 0.015 ± 0.13; for F8I: -0.017 ± 0.075. Consider F8T, for which the abundance fitness is -0.08 ± 0.096. The figure for F8N is -0.021 ± 0.16; for F8P it is -0.081 ± 0.08; for E32A it is -0.008 ± 0.047.

As to E32P, the abundance fitness was -0.042 ± 0.047.

Take E63G: the abundance fitness is -0.054 ± 0.035.

As for E63K, the abundance fitness worked out at 0.011 ± 0.05. Take R64C: the abundance fitness is -0.128 ± 0.068. The figure for R64N is -0.043 ± 0.13. The same measure for R64S: -0.021 ± 0.045; for R64G: 0.031 ± 0.034; for A21Q: 0.002 ± 0.073.

As to A21R, the abundance fitness is -0.019 ± 0.051. As to A21F, the abundance fitness is -0.212 ± 0.091. The same measure for A21N: 0.235 ± 0.16. The same measure for A21G: -0.063 ± 0.047; for A21V: -0.167 ± 0.048; for A21P: -0.774 ± 0.072. For the variant A21M, the abundance fitness is -0.235 ± 0.079. On to A21D, for which the abundance fitness worked out at 0.002 ± 0.079. The figure for T77Y is -0.084 ± 0.071; for T77P it is -0.003 ± 0.088. The same measure for T77I: -0.261 ± 0.082.

As to T77R, the abundance fitness amounted to 0.09 ± 0.048. The same measure for T77S: 0.024 ± 0.07; for T77E: 0.034 ± 0.088. The same measure for M35E: -0.113 ± 0.12; for M35N: -0.249 ± 0.34; for M35K: -0.299 ± 0.14.
